Measured values as given in paper PMC7949148.

What was measured:
[1] = molecular target: Trypanosoma brucei FoF1–ATP synthase complex (Trypanosoma brucei (endogenous in PCF and BSF cells)); test: native gel or EMSA; high-resolution clear native electrophoresis of digitonin-lysed (4 mg/mg protein) crude mitochondrial vesicles from PCF and BSF parasites, 3 to 12% native gradient gel, 4 °C; Western blot with antibodies against p18 and Tb1
[2] = molecular target: Trypanosoma brucei FoF1–ATP synthase complex (Trypanosoma brucei (endogenous in PCF and BSF cells)); test: native gel or EMSA; blue native electrophoresis of DDM-lysed (2% PCF, 4% BSF) mitochondria, 3 to 12% native gradient gel, 4 °C; Western blot with antibodies against subunit β and Tb2; cells noninduced or with Tb1 or OSCP silenced or ablated

- stoichiometry N [1]: 2
- stoichiometry N [2]: 2
Substance: Trypanosoma brucei FoF1–ATP synthase complex
